Laboratory results published in US20070167369A1, “Novel use of isolated polypeptide comprising four FAS-1 domains, EM1 domain and RGD motif” (KYUNGPOOK NATIONAL UNIVERSITY INDUSTRY-ACADEMIC COOPERATION …, priority 2004, published 2007).

B1: fas-1 domain: recombinant protein containing the fourth fas-1 domain of human βig-h3 (SEQ ID NO: 64) (protein, listed as Homo sapiens)
chain: MGTVMDVLKGDNRFSMLVAAIQSAGLTETLNREGVYTVFAPTNEAFRALPPRERSRLLGDAKELANILKYHIGDEILVSGGIGALVRLKSLQGDKLEVSLKNNVVSVNKEPVAEPDIMATNGVVHVITNVL
B2: truncated βig-h3: recombinant human βig-h3 with EMI domain, all four fas-1 domains and RGD motif; residues 68-653 of SEQ ID NO: 1 (SEQ ID NO: 66) (protein, listed as Homo sapiens)
chain: WYQRKICGKSTVISYECCPGYEKVPGEKGCPAALPLSNLYETLGVVGSTTTQLYTDRTEKLRPEMEGPGSFTIFAPSNEAWASLPAEVLDSLVSNVNIELLNALRYHMVGRRVLTDELKHGMTLTSMYQNSNIQIHHYPNGIVTVNCARLLKADHHATNGVVHLIDKVISTITNNIQQIIEIEDTFETLRAAVAASGLNTMLEGNGQYTLLAPTNEAFEKIPSETLNRILGDPEALRDLLNNHILKSAMCAEAIVAGLSVETLEGTTLEVGCSGDMLTINGKAIISNKDILATNGVIHYIDELLIPDSAKTLFELAAESDVSTAIDLFRQAGLGNHLSGSERLTLLAPLNSVFKDGTPPIDAHTRNLLRNHIIKDQLASKYLYHGQTLETLGGKKLRVFVYRNSLCIENSCIAAHDKRGRYGTLFTMDRVLTPPMGTVMDVLKGDNRFSMLVAAIQSAGLTETLNREGVYTVFAPTNEAFRALPPRERSRLLGDAKELANILKYHIGDEILVSGGIGALVRLKSLQGDKLEVSLKNNVVSVNKEPVAEPDIMATNGVVHVITNVLQPPANRPQERGDELADSALEI

What was measured:
[1] = test system: HUVECs; experiment: Migration of endothelial cells toward fibronectin, vitronectin or collagen (Example 5-2); format: cell-based, human
Experimental: The undersurface of a transwell plate was coated with each of fibronectin, vitronectin and collagen, and then, a test was performed in the same manner as in Example 4-2 above.

[2] = test system: HUVECs; experiment: Endothelial cell proliferation, MTT (Example 6); format: cell-based, human; conditions: 48 hours
Experimental: HUVECs were suspended in medium at a density of 3×10^4 cells/ml, and 0.1 ml of the cell suspension was added to each well of 96-well plate and incubated at 37° C. overnight. The cells were washed with PBS buffer, and then incubated at 37° C. for 24 hours in serum-free medium. Thereafter, 0.2% FBS-containing medium containing the indicated concentrations of the fas-1 domain (βig-h3 D-IV) prepared in Example 1 was added to each well of the plate and incubated at 37° C. for 48 hours. A control was added with 2% BSA instead of the fas-1 domain. 50 μl of 0.5 mg/ml thiazolyl blue (MTT; Sigma) solution was added to each well, and allowed to react at 37° C. for 4 hours. After the reaction, the medium was removed, and each well was added with DMSO and left to stand at room temperature for a few minutes. Thereafter, the absorbance was measured at 570 nm in a Bio-Rad model 550 microplate reader.

[3] = test system: melanoma cells (B16F10); experiment: Apoptosis by annexin V staining/FACS, melanoma cells (Example 7-1); format: cell-based, murine; conditions: 48 hours
Experimental: Annexin V is a protein binding to calcium-dependent phospholipid, and known to have a strong affinity for phosphatidylserine such that apoptosis can be assayed. For this reason, the present inventors performed a test using an annexin V staining kit (Santa Cruz Biotechnology Inc.).
Each of human umbilical vein endothelial cells (HUVECs) and melanoma cells (B16F10) was suspended in medium at a density of 5×10^5 cells/ml, added to each well of […] and incubated at 37° C. overnight. On the next day, the cells were washed one time with PBS buffer, then added with serum-free medium and incubated at 37° C. for 24 hours. 0.2% FBS-containing fresh medium was treated with the fas-1 domain (βig-h3 D-IV) prepared in Example 1, at various concentrations, then added to each well of the plate and incubated at 37° C. for 48 hours. A negative control was added with PBS, a positive control was incubated with TNF-α or Vitamin C, which are known to induce the apoptosis of endothelial cells and melanoma cells. FITC (fluorescein isothiocyanate)-conjugated annexin V antibodies were added and allowed to react at 4° C. for one hour. After completion of the reaction, unbound annexin V antibodies were removed with PBS buffer, and the apoptosis of the cells was analyzed using FACS (BD Biosciences).

[4] = test system: tumors derived from fas-1/B16F10 cells; experiment: Growth of tumors derived from fas-1-overexpressing melanoma cells (Example 10-2); format: in vivo, mice; conditions: fas-1 domain overexpressed in the implanted B16F10 cells
Experimental: Each of the fas-1-overexpressing melanoma cells (fas-1/B16F10) and the control cells (pLNCX/B16F10) was suspended in medium at a density of 1×10^7 cells/ml. 0.1 ml of each of the cell suspensions was injected subcutaneously to 5-6 week old mice (Hyochang scientific company, Korea) to make a tumor model. Since the diameter of the tumor reached about 3 mm, the body weight and tumor size of the mice were checked at intervals of three days. The longest diameter and the shortest diameter of the tumor were measured with slide calipers, and the measured values were substituted in the following equation (1) to calculate the volume of the tumor. Volume of tumor=a×b^2/2 [Equation 1]
Wherein, ‘a’ is the shortest diameter of the tumor, and ‘b’ is the longest diameter of the tumor.

[5] = test system: HUVECs; experiment: Endothelial cell adhesion to plates coated with βig-h3 or its fas-1 domains (Example 2); format: cell-based, human; conditions: plate coated with 10 μg/ml protein; absorbance 405 nm
Experimental: Cell adhesion assay was performed according to the method described by Kim, J.-E. et al., J. Biol. Chem., 277:46159-46165, 2002. For this purpose, 10 μg/ml of each of the recombinant proteins (βig-h3 His-1-b, βig-h3 D-I, βig-h3 D-II, βig-h3 D-III and βig-h3 D-IV) prepared in Example 1 was placed into a flat-bottomed 96-well ELISA (enzyme-linked immunosorbent assay) plate (Costar, Corning Inc., NY) and then incubated overnight at 4° C., to coat the surface of the plate. As a control, 2% BSA was coated on the plate. Then, the plate was treated with PBS (phosphate-buffered saline) containing 2% BSA, and blocked at room temperature for one hour.
Meanwhile, HUVECs (human umbilical vein endothelial cells; Clonetics, San Diego, Calif.) were incubated in EGM medium (Clonetics, San Diego, Calif.) containing 2% FBS (Fetal Bovine Serum) under a condition of 37° C. and 5% CO2. The incubated cells were suspended in medium at a density of 3×10^5 cells/ml, and 0.1 ml of the cell suspension was added to each well of the plate. Next, the cells were incubated at 37° C. for 30 minutes and washed one time with PBS buffer to remove cells which had not been attached to the plate. […] The absorbance was measured at a 405-nm in a Bio-Rad model 550 microplate reader. Here, the higher the number of cells adhered to the plate, the higher the absorbance.

| Molecule | inhibition of migration of HUVECs to collagen ([1]; transwell coated with collagen) | inhibition of migration of HUVECs toward fibronectin ([1]; transwell coated with fibronectin) | inhibition of migration of HUVECs toward vitronectin ([1]; transwell coated with vitronectin) | inhibition of proliferation of endothelial cells [2] | induction of apoptosis of B16F10 cells [3] | growth of tumors derived from melanoma cells [4] | adhesion of endothelial cells to coated protein [5] |
| --- | --- | --- | --- | --- | --- | --- | --- |
| B1 | partially inhibited | completely inhibited | completely inhibited | inhibited by fas-1 domain in a dose-dependent manner | did not induce the apoptosis of B16F10 cells | inhibits the in vivo growth of tumors derived from the melanoma cells |  |
| B2 |  |  |  |  |  |  | mediated the adhesion of endothelial cells |
